± gives the uncertainty stated by the source.
B1: TOX high mobility group box family member 3, residues 256 to 323; numbered along this chain, O15405 (parent)
chain: QKPVSAYALFFRDTQAAIKGQNPNATFGEVSKIVASMWDSLGEEQKQVYKRKTEAAKKEYLKALAAYR
B2: POU domain, class 3, transcription factor 1, residues 247 to 324; numbered along this chain, Q03052 (parent)
chain: EDAPSSDDLEQFAKQFKQRRIKLGFTQADVGLALGTLYGNVFSQTTICRFEALQLSFKNMCKLKPLLNKWLEETDSSS

Variants of: B1
Assay: abundance fitness (aPCA) (normalised: wild type 0, dead -1); higher = more abundant; growth selection in yeast, the domain comes from the species named
Details: Homo sapiens

Variant	abundance fitness
A63I	-0.34 ± 0.076
A63C	-0.105 ± 0.089
A63L	-0.395 ± 0.047
A63Y	-0.167 ± 0.068
A63F	-0.637 ± 0.22
A63K	0.173 ± 0.062
A63S	0.132 ± 0.043
A63M	-0.178 ± 0.059
A63D	0.08 ± 0.081
A63H	0.155 ± 0.079
A63Q	0.119 ± 0.064
A63W	-0.178 ± 0.05
A63P	0.111 ± 0.048
A63E	0.285 ± 0.056
A63V	-0.212 ± 0.055
A63N	0.107 ± 0.074
A63G	0.201 ± 0.044
A65W	-0.082 ± 0.079
A65D	0.078 ± 0.084
A65G	0.067 ± 0.047
A65N	0.098 ± 0.16
A65P	0.117 ± 0.069
A65F	-0.111 ± 0.11
A65Q	0.004 ± 0.097

Variant	abundance fitness
A65T	0.081 ± 0.093
A65E	0.113 ± 0.047
A65H	-0.081 ± 0.12
A65L	-0.03 ± 0.056
A65K	0.036 ± 0.081
A65Y	-0.48 ± 0.38
A65V	-0.049 ± 0.048
A65R	-0.037 ± 0.059
A65S	0.042 ± 0.069
K62I	-0.538 ± 0.093
K62N	-0.069 ± 0.069
K62E	-0.006 ± 0.059
K62S	-0.092 ± 0.043
K62P	-0.142 ± 0.05
K62F	-0.519 ± 0.082
K62G	-0.133 ± 0.05
K62V	-0.458 ± 0.059
K62L	-0.344 ± 0.049
K62R	-0.002 ± 0.038
K62W	-0.838 ± 0.11
K62M	-0.205 ± 0.057
K62Q	-0.118 ± 0.07
K62Y	-0.396 ± 0.063
L64A	-0.093 ± 0.093

Variant	abundance fitness
L64Y	-0.172 ± 0.075
L64I	0.146 ± 0.1
L64N	0.173 ± 0.1
L64M	-0.031 ± 0.15
L64D	0.323 ± 0.076
L64S	0.128 ± 0.057
L64E	0.354 ± 0.066
L64C	0.153 ± 0.066
L64T	0.236 ± 0.056
L64F	-0.273 ± 0.095
L64H	0.285 ± 0.085
L64V	0.131 ± 0.05
L64G	0.241 ± 0.05
L64P	0.33 ± 0.071
L64W	-0.227 ± 0.08
L64K	0.205 ± 0.06
L64R	0.088 ± 0.054
R68A	-0.07 ± 0.1
R68G	-0.01 ± 0.078
R68V	-0.355 ± 0.063
R68T	-0.007 ± 0.078
R68Q	-0.044 ± 0.089
R68N	0.198 ± 0.24
R68H	-0.137 ± 0.17

Variant	abundance fitness
R68W	-0.322 ± 0.22
R68L	-0.126 ± 0.087
R68K	0.101 ± 0.11
R68E	0.197 ± 0.058
R68F	-0.33 ± 0.25
R68P	0.297 ± 0.066
R68Y	-0.292 ± 0.11
R68I	-0.65 ± 0.22
R68M	-0.247 ± 0.11
Y67G	0.263 ± 0.053
Y67L	-0.044 ± 0.057
Y67K	0.244 ± 0.093
Y67T	0.274 ± 0.078
Y67M	0.161 ± 0.082
Y67R	0.306 ± 0.063
Y67C	0.208 ± 0.064
Y67F	-0.106 ± 0.077
Y67H	0.155 ± 0.081
Y67P	0.352 ± 0.088
Y67W	-0.158 ± 0.17
Y67E	0.138 ± 0.35
Y67Q	0.281 ± 0.17
Y67A	0.263 ± 0.077
Y67V	0.323 ± 0.069

Variant	abundance fitness
Y67N	0.288 ± 0.076
Y67I	-0.012 ± 0.073
Y67D	0.256 ± 0.085
A66P	0.182 ± 0.05
A66K	-0.221 ± 0.19
A66R	0.056 ± 0.05
A66Q	0.093 ± 0.06
A66F	-0.453 ± 0.08
A66Y	-0.111 ± 0.12
A66V	0.064 ± 0.075
A66H	0.124 ± 0.088
A66E	0.218 ± 0.067
A66N	0.135 ± 0.075
A66I	-0.333 ± 0.15
A66W	-0.103 ± 0.067
A66C	-0.038 ± 0.11
A66T	0.184 ± 0.061
A66M	-0.097 ± 0.068
A66D	0.509 ± 0.12
A66S	0.061 ± 0.052

Variants of: B2
Assay: as above
Details: Homo sapiens

Variant	abundance fitness
S6Y	0.043 ± 0.45
S6H	0.308 ± 0.14
S6P	0.162 ± 0.11
S6C	0.398 ± 0.14
S6I	0.346 ± 0.13
S6W	0.405 ± 0.063
S6Q	0.436 ± 0.087
S6N	0.178 ± 0.11
S6F	0.355 ± 0.15
S6M	0.473 ± 0.07
S6K	0.49 ± 0.067
S6T	0.38 ± 0.084
S6G	0.321 ± 0.041
S6E	0.223 ± 0.069
S6A	0.427 ± 0.051
S6R	0.365 ± 0.047
S6D	0.125 ± 0.096
F12E	-0.738 ± 0.31
F12N	-0.192 ± 0.3
F12T	-1.16 ± 0.46
F12A	-0.391 ± 0.12
F12P	-0.492 ± 0.2
F12L	-0.547 ± 0.13
F12I	-0.553 ± 0.45
F12W	-0.362 ± 0.12

Variant	abundance fitness
F12G	-1.11 ± 0.23
F12V	-0.55 ± 0.14
F12C	-0.881 ± 0.39
F12Q	-0.844 ± 0.31
F12S	-0.544 ± 0.14
F12R	-0.62 ± 0.12
D2H	0.29 ± 0.11
D2Q	0.267 ± 0.15
D2I	0.413 ± 0.15
D2L	0.151 ± 0.066
D2T	0.459 ± 0.086
D2K	0.452 ± 0.087
D2W	0.001 ± 0.08
D2M	0.342 ± 0.082
D2E	0.41 ± 0.068
D2C	0.081 ± 0.13
D2N	0.256 ± 0.091
D2G	0.411 ± 0.05
D2R	0.312 ± 0.048
D2Y	0.197 ± 0.13
D2F	0.166 ± 0.1
D2P	0.252 ± 0.11
D2V	0.171 ± 0.059
D2S	0.453 ± 0.08
D2A	0.217 ± 0.066

Variant	abundance fitness
A13G	-0.828 ± 0.14
A13D	-1.07 ± 0.45
A13F	-0.972 ± 0.41
A13W	-0.903 ± 0.27
A13Y	-0.505 ± 0.2
A13K	-0.402 ± 0.15
A13V	-0.047 ± 0.063
A13M	-0.383 ± 0.17
A13C	0.113 ± 0.086
A13E	-0.416 ± 0.14
A13T	-0.691 ± 0.18
A13I	-0.43 ± 0.14
A13S	-0.53 ± 0.1
D8N	-0.294 ± 0.2
D8L	-0.491 ± 0.15
D8S	-0.415 ± 0.099
D8Y	-0.826 ± 0.43
D8K	-0.397 ± 0.16
D8A	-0.183 ± 0.079
D8H	-0.276 ± 0.41
D8I	-0.529 ± 0.28
D8F	-0.481 ± 0.41
D8C	-0.358 ± 0.17
D8Q	-0.25 ± 0.12
D8G	-0.095 ± 0.061

Variant	abundance fitness
D8R	-0.179 ± 0.07
D8V	-0.217 ± 0.069
D8T	-0.454 ± 0.18
D8E	-0.076 ± 0.085
D8M	0.014 ± 0.14
P4A	0.008 ± 0.067
P4W	0.066 ± 0.062
P4M	0.032 ± 0.081
P4K	-0.114 ± 0.091
P4G	-0.098 ± 0.052
P4E	-0.043 ± 0.079
P4F	-0.366 ± 0.2
P4N	-0.403 ± 0.23
P4H	0.002 ± 0.22
P4I	0.13 ± 0.16
P4T	0.019 ± 0.083
P4Q	-0.24 ± 0.16
P4L	-0.031 ± 0.061
P4Y	0.169 ± 0.26
P4C	0.126 ± 0.099
P4D	-0.134 ± 0.12
P4R	-0.229 ± 0.056
Q11C	-0.266 ± 0.15
Q11M	-0.213 ± 0.095
Q11Y	-0.269 ± 0.14

Variant	abundance fitness
Q11W	-0.707 ± 0.1
Q11E	-0.002 ± 0.072
Q11F	-0.093 ± 0.17
Q11P	-0.299 ± 0.12
Q11A	-0.087 ± 0.07
Q11S	-0.002 ± 0.07
Q11R	-0.149 ± 0.054
Q11G	-0.272 ± 0.055
Q11D	0.07 ± 0.095
Q11N	0.001 ± 0.15
Q11H	0.121 ± 0.17
Q11I	0.134 ± 0.21
Q11K	0.057 ± 0.077
Q11V	-0.032 ± 0.052
Q11T	0.036 ± 0.099
L9W	-0.365 ± 0.091
L9K	-0.399 ± 0.21
L9P	-0.68 ± 0.24
L9R	-0.678 ± 0.1
L9S	-0.833 ± 0.16
L9E	-0.54 ± 0.18
L9T	-0.268 ± 0.11
L9H	-0.645 ± 0.31
L9C	-0.606 ± 0.24
L9Q	-0.355 ± 0.1

Variant	abundance fitness
L9M	-0.084 ± 0.11
L9D	-0.678 ± 0.29
L9A	-0.532 ± 0.11
L9I	-0.398 ± 0.21
L9V	-0.095 ± 0.058
L9F	-0.098 ± 0.13
L9G	-0.651 ± 0.11
E1A	-0.211 ± 0.11
E1W	0.144 ± 0.12
E1V	0.103 ± 0.067
E1N	-0.013 ± 0.16
E1M	0.319 ± 0.1
E1L	0.135 ± 0.086
E1Y	0.05 ± 0.21
E1S	0.126 ± 0.1
E1R	0.102 ± 0.099
E1C	0.281 ± 0.41
E1T	0.088 ± 0.14
E1F	0.118 ± 0.3
E1G	-0.031 ± 0.06
E1Q	0.209 ± 0.14
E1K	0.066 ± 0.16
E1D	0.359 ± 0.11
E1I	0.3 ± 0.14
A3S	0.238 ± 0.057

Variant	abundance fitness
A3D	-0.164 ± 0.14
A3M	0.363 ± 0.071
A3H	0.258 ± 0.15
A3Y	-0.033 ± 0.28
A3C	0.172 ± 0.11
A3F	0.281 ± 0.12
A3R	0.222 ± 0.049
A3V	-0.08 ± 0.07
A3L	0.362 ± 0.059
A3T	0.238 ± 0.053
A3Q	0.327 ± 0.08
A3E	-0.049 ± 0.08
A3P	0.051 ± 0.087
A3W	0.098 ± 0.062
A3G	-0.053 ± 0.063
A3N	0.444 ± 0.11
E10Q	-0.144 ± 0.15
E10H	0.243 ± 0.12
E10G	-0.361 ± 0.072
E10D	-0.136 ± 0.12
E10R	-0.107 ± 0.057
E10C	-0.118 ± 0.098
E10T	-0.121 ± 0.1
E10K	-0.301 ± 0.17
E10A	-0.178 ± 0.072

Variant	abundance fitness
E10I	-0.456 ± 0.27
E10P	-0.432 ± 0.15
E10Y	-0.244 ± 0.18
E10W	-0.107 ± 0.089
E10S	-0.433 ± 0.1
E10F	-0.073 ± 0.11
E10N	-0.024 ± 0.13
E10M	-0.037 ± 0.08
S5A	0.048 ± 0.062
S5V	0.045 ± 0.062
S5K	0.07 ± 0.074
S5W	-0.206 ± 0.08
S5P	0.067 ± 0.097
S5E	0.111 ± 0.071
S5T	0.09 ± 0.081
S5R	0.164 ± 0.046
S5C	0.113 ± 0.093
S5I	-0.234 ± 0.17
S5L	0.129 ± 0.051
S5N	0.119 ± 0.13
S5Q	0.042 ± 0.097
S5F	-0.143 ± 0.17
S5D	0.388 ± 0.087
S5Y	-0.062 ± 0.15
S5M	0.141 ± 0.078

Variant	abundance fitness
S5H	0.283 ± 0.1
D7Y	0.101 ± 0.12
D7M	-0.153 ± 0.1
D7E	0.089 ± 0.08
D7Q	-0.138 ± 0.15
D7G	-0.045 ± 0.057
D7W	-0.427 ± 0.11
D7T	-0.073 ± 0.11
D7R	-0.085 ± 0.058
D7V	-0.181 ± 0.071
D7N	-0.305 ± 0.36
D7H	-0.361 ± 0.37
D7P	-0.642 ± 0.23
D7A	-0.142 ± 0.081
D7C	-0.316 ± 0.15
D7S	-0.477 ± 0.13
D7K	0.358 ± 0.14
D7F	-0.616 ± 0.22

Reference: the Human Domainome abundance scans (Beltran et al. 2025)
